From publication PMC2141705 come the findings set out here.

The test concerns the target calnexin (mouse (endogenous in AtT-20)) (UniProt P35564). The experiment in a line: co-IP.
UniProt P35564, sequence (P35564 21-591): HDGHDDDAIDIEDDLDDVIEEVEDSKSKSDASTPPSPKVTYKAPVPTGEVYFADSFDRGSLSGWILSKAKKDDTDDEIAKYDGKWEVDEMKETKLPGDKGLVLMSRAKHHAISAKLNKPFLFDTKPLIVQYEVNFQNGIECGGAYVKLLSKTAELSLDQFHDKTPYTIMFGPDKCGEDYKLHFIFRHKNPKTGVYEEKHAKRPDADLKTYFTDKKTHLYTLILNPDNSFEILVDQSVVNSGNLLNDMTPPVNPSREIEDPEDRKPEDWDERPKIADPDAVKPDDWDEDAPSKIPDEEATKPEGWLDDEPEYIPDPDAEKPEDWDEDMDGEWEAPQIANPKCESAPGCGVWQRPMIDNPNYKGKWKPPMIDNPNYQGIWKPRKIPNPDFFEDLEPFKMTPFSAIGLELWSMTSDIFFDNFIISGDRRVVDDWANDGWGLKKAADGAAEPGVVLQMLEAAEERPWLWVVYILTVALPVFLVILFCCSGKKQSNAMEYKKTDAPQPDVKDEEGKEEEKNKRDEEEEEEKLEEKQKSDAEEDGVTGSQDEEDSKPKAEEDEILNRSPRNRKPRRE

“proPC2 (proenzyme form of prohormone convertase 2) (from UniProt P28841 25-637)”: the percent of total radiolabeled proPC2 coimmunoprecipitated was 5%.
